This is an account of results in article PMC12777564, “Proposal of metagenomic-origin LRA-5 as a precursor of active β-lactamases through Tyr69Gln and Val166Glu amino acid substitutions: a functional and structural analysis” (Antimicrobial Agents and Chemotherapy, 2025).

A value given as a limit tells only on which side of the number the result lay.

One series addresses T1, LRA-5 (uncultured bacterium BLR5, UniProt B5L5W7).
T1 construct: gene blaLRA-5
The series is described as follows: biochemical. Also on record: time-dependent inactivation of purified LRA-5 by clavulanate, 100 uM nitrocefin as reporter substrate. To be noted: wild-type LRA-5. As for the experimental part:
For irreversible inhibitors like clavulanic acid, the rate constant of inactivation, kinact, was measured directly by time-dependent inactivation of LRA-5 variants using a fixed concentration of enzyme and 100 µM nitrocefin as reporter and increasing concentrations of the inhibitor. The observed rate constant for inactivation (kobs) was determined by nonlinear least-squares fitting of the data using equation 3, as described elsewhere ([42]). […] This behavior is not entirely striking, as it may be related to the fact that the absence of Glu166 in the wild-type variant could still favor the inhibition of clavulanate, due to the absence of the water molecule that normally “competes” with inhibitors during acylation ([29]). Overnight cultures of recombinant E. coli BL21(DE3) cells expressing wild-type LRA-5 and LRA-5^Y69Q/V166E were diluted (1/50) in 500 mL Lysogeny Broth (LB) supplemented with 30 µg/mL kanamycin and grown at 37°C until 0.6–0.8 OD units (λ = 600 nm) was reached. […] Eluted fractions were analyzed by SDS-PAGE in 15% polyacrylamide gels. […] The protein purity was assessed by Coomassie blue staining on 15% SDS polyacrylamide gels, and protein concentration was determined by UV absorbance at 280 nm and calculated according to the Lambert-Beer law. […]

In series [1] the test system is CO/N=C(\C(=O)N[C@@H]1C(=O)N2C(C(=O)[O-])=C(C[N+]3(C)CCCC3)CS[C@H]12)c1csc(N)n1. The series is described as follows: steady-state hydrolysis kinetics with pure enzyme (Km), no-enzyme control. The series is classed as biochemical, uncultured bacterium BLR5. From the text: steady-state hydrolysis kinetics with pure enzyme (Km), no-enzyme control on LRA-5 | The exceptions were nitrocefin and, strikingly, cefepime.

In series [2] the test system is CO/N=C(\C(=O)N[C@@H]1C(=O)N2C(C(=O)O)=C(CSc3nc(=O)c(=O)[nH]n3C)CS[C@H]12)c1csc(N)n1. The series is described as follows: purified protein, by the assay type. More on the design: steady-state beta-lactam hydrolysis kinetics with purified LRA-5; Km (apparent Km via nitrocefin competition for poor substrates). To be noted: pH 7.5. The method, then:
(§1) For low Km values, the kcat values were derived by complete hydrolysis time courses as described by De Meester et al. ([41]). For poor substrates that behave as competitive inhibitors, the Ki was obtained by monitoring the residual activity of the enzyme in the presence of various concentrations of the drug and 100 µM nitrocefin as reporter substrate; the corrected Ki (considered the observed or apparent Km) value was finally determined using equation 2: The kinetic parameters of wild-type LRA-5 and its double substituted variant LRA-5^Y69Q/V166E are shown in Table 3. […] This behavior is expected considering that this variant lacks Glu166, which is essential to orient the deacylation water molecule during the regeneration stage of the active site. The exceptions were nitrocefin and, strikingly, cefepime. This behavior deserves more in-depth analysis. […] Overnight cultures of recombinant E. coli BL21(DE3) cells expressing wild-type LRA-5 and LRA-5^Y69Q/V166E were diluted (1/50) in 500 mL Lysogeny Broth (LB) supplemented with 30 µg/mL kanamycin and grown at 37°C until 0.6–0.8 OD units (λ = 600 nm) was reached. At this point, 1 mM isopropyl β-D-thiogalactopyranoside (IPTG) was added, and cultures were resumed for growing overnight at 20°C (200 rpm stirring). Then, cell pellets were obtained after centrifugation at 8,000 rpm for 20 min (4°C) in a Sorvall RC-5C (GS3 rotor) and resuspended in 20 mM Tris buffer (pH 7.5) + 500 mM NaCl (buffer A). Crude extracts were obtained by ultrasonic disruption (9 cycles of 5 min, 40% potency, 20 pulses/min, on ice bath) and clarified by centrifugation at 10,000 rpm for 20 min (4°C, SS34 rotor). Clarified supernatants were filtrated through 0.45 µm pore-size membranes, and loaded onto 5 mL HisTrap HP affinity columns (GE Healthcare Life Sciences, USA), connected to an ÄKTA-purifier (GE Healthcare, Uppsala, Sweden), and equilibrated with buffer A. The column was extensively washed to remove unbound proteins, and the LRA-5 proteins were eluted using a linear gradient (0%–100%; 1 mL/min flow rate) of buffer B consisting of buffer A + 500 mM imidazole (pH 7.5). Eluted fractions were analyzed by SDS-PAGE in 15% polyacrylamide gels. Fractions containing the pure LRA-5 variants were dialyzed against buffer A, and the histidine tag was removed by thrombin digestion (16 h at 25°C), using 10 U thrombin per mg protein for complete proteolysis, and later by affinity purification using 1 mL HisTrap HP columns (GE Healthcare Life Sciences, USA), following the same conditions as before (the pure LRA-5 is recovered in the pass-through, while the His-tag and any uncleaved fractions remain attached to the column). The protein purity was assessed by Coomassie blue staining on 15% SDS polyacrylamide gels, and protein concentration was determined by UV absorbance at 280 nm and calculated according to the Lambert-Beer law. The fractions of purified enzymes were stored at −80°C for subsequent kinetics and crystallographic assays.

Series [3] relates to CC(=O)OCC1=C(C(=O)O)N2C(=O)[C@@H](NC(=O)Cc3cccs3)[C@H]2SC1. The series is described as follows: purified protein, by the assay type. Also on record: steady-state beta-lactam hydrolysis kinetics with purified LRA-5; Km (apparent Km via nitrocefin competition for poor substrates). To be noted: pH 7.5. The method, then: as §1
Series [4] deals with O=C(Cc1cccs1)N[C@@H]1C(=O)N2C(C(=O)O)=C(/C=C/c3ccc([N+](=O)[O-])cc3[N+](=O)[O-])CS[C@H]12. The series is described as follows: purified protein, by the assay type. Also on record: steady-state beta-lactam hydrolysis kinetics with purified LRA-5; Km (apparent Km via nitrocefin competition for poor substrates). To be noted: pH 7.5. The method, then: as §1
Series [5] deals with CC1(C)S[C@@H]2[C@H](NC(=O)[C@H](N)c3ccccc3)C(=O)N2[C@H]1C(=O)O. The series is described as follows: purified protein, by the assay type. Also on record: steady-state beta-lactam hydrolysis kinetics with purified LRA-5; Km (apparent Km via nitrocefin competition for poor substrates). To be noted: pH 7.5. The method, then:
as §1

In series [6] the test system is C[C@H]1[C@H](NC(=O)/C(=N\OC(C)(C)C(=O)O)c2csc(N)n2)C(=O)N1S(=O)(=O)O. The series is described as follows: purified protein, by the assay type. More on the design: steady-state beta-lactam hydrolysis kinetics with purified LRA-5; Km (apparent Km via nitrocefin competition for poor substrates). To be noted: pH 7.5. As for the experimental part:
as §1

Series [7] relates to CO/N=C(\C(=O)N[C@@H]1C(=O)N2C(C(=O)O)=C(CSc3nc(=O)c(=O)[nH]n3C)CS[C@H]12)c1csc(N)n1. The series is described as follows: steady-state hydrolysis kinetics with pure enzyme (Km). The series is classed as biochemical, uncultured bacterium BLR5.
Series [8] has as its system C[C@@H](O)[C@H]1C(=O)N2C(C(=O)O)=C(SCCN=CN)C[C@H]12. The description is as above. In kind it is biochemical, uncultured bacterium BLR5.
Series [9] has as its system C[C@@H](O)[C@H]1C(=O)N2C(C(=O)O)=C(S[C@@H]3CN[C@H](C(=O)N(C)C)C3)[C@H](C)[C@H]12. Described as above. The series is classed as biochemical, uncultured bacterium BLR5.
Series [10] concerns CC(=O)OCC1=C(C(=O)O)N2C(=O)[C@@H](NC(=O)Cc3cccs3)[C@H]2SC1. The series is described as above. In kind it is biochemical, uncultured bacterium BLR5.
For series [11], the system named is O=C(Cc1cccs1)N[C@@H]1C(=O)N2C(C(=O)O)=C(/C=C/c3ccc([N+](=O)[O-])cc3[N+](=O)[O-])CS[C@H]12. The series is described as above. The series is classed as biochemical, uncultured bacterium BLR5.
The subject of series [12] is CC1(C)S[C@@H]2[C@H](NC(=O)[C@H](N)c3ccccc3)C(=O)N2[C@H]1C(=O)O. Described as above. In kind it is biochemical, uncultured bacterium BLR5.

T1 sequence (B5L5W7 entry or part of it): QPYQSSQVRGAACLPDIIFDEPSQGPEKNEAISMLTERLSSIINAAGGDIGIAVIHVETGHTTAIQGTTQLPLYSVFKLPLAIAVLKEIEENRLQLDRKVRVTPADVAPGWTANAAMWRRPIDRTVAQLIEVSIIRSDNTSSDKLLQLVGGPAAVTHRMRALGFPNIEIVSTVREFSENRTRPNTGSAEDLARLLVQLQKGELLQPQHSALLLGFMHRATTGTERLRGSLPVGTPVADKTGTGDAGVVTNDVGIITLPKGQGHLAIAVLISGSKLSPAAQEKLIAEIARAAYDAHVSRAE

Consider `O=C(O)[C@H]1/C(=C/CO)O[C@@H]2CC(=O)N21` [Clavulanate], for which, on LRA-5 (read-out: LRA-5 (wild-type) / kcat (s^−1) / NH / kinact), the kinact amounted to 0.005 ± 0.0001 s⁻¹. For the same molecule, the kinact/KI on LRA-5 (read-out: LRA-5 (wild-type) / kcat/Km (M^−1 s^−1) / ND / kinact/K) came to 833 ± 102 M⁻¹ s⁻¹.
As for LRA-5 (uncultured bacterium BLR5), the Km in [1] was 10.0 ± 0.5 µM; in series [2], 11 ± 2 µM; in series [3], 35 ± 4 µM; in series [4] it was 8 ± 2 µM; in [5], 65 ± 13 µM. Also, the kcat in [1] was 0.02 ± 0.006 s⁻¹; in series [2], 3.6e-06 ± 6e-07 s⁻¹; in series [3] it was 0.005 ± 0.0008 s⁻¹; in series [4] it was 0.045 ± 0.001 s⁻¹; in [5] it was 0.01 ± 0.002 s⁻¹; in [6], 2e-05 ± 3e-06 s⁻¹. Also, the kcat/Km is 2000 ± 100 M⁻¹ s⁻¹ in series [1]; 0.32 ± 0.08 M⁻¹ s⁻¹ in [2]; 143 ± 28 M⁻¹ s⁻¹ in series [3]; 5600 ± 1400 M⁻¹ s⁻¹ in series [4]; 154 ± 44 M⁻¹ s⁻¹ in series [5]; < 0.02 M⁻¹ s⁻¹ in series [6].
For the molecule “LRA-5^Y69Q/V166E (uncultured bacterium BLR5; V199E/Y100Q)”, the Km worked out at 29 ± 9 µM in series [7]; 3.0 ± 0.1 µM in [8]; 5.0 ± 0.6 µM in [9]; 14 ± 3 µM in series [10]; 32 ± 4 µM in series [11]; 4.0 ± 0.2 µM in series [12]. In addition, the kcat was 0.107 ± 0.01 s⁻¹ in series [7]; 0.006 ± 0.0002 s⁻¹ in series [8]; 0.003 ± 0.0007 s⁻¹ in [9]; 0.025 ± 0.001 s⁻¹ in [10]; 4.8 ± 0.3 s⁻¹ in series [11]; 0.002 ± 0.0006 s⁻¹ in series [12]. Besides, the kcat/Km turned out to be 3690 ± 1200 M⁻¹ s⁻¹ in [7]; 1920 ± 86 M⁻¹ s⁻¹ in series [8]; 600 ± 157 M⁻¹ s⁻¹ in series [9]; 1780 ± 389 M⁻¹ s⁻¹ in series [10]; 150000 ± 21000 M⁻¹ s⁻¹ in series [11]; 500 ± 152 M⁻¹ s⁻¹ in series [12].
